Experimental data as given in publication PMC5021521, “Coordinated recruitment of Spir actin nucleators and myosin V motors to Rab11 vesicle membranes” (eLife, 2016).

What was measured:
GST-Rab11a-Q70L = test: GST-pulldown from HEK293 lysates; assay type: binding; conditions: N = 2; for pulldown by GST-Rab11a-Q70L in words, with Q1753R mutant MyoVa: HEK293 lysates with GFP-MyoVa-Q1753R in place of GFP-MyoVa-FL
Experimental: HEK293 cells were co-transfected with expression vectors encoding Myc-Spir-2-FL, mStrawberry-FMN2-FH2-FSI, eGFP-MyoVa-D-FL and eGFP-MyoVa-D-Q1753R, respectively. 24 hr post transfection, cells were lysed in lysis buffer (25 mM Tris-HCl pH 7.4, 150 mM NaCl, 5 mM MgCl2, 10% (v/v) glycerol, 0.1% (v/v) Nonidet P-40, 1 mM PMSF, protease inhibitor cocktail) and centrifuged at 20,000 x g, 4°C, 20 min to remove insoluble debris. For GST-pulldown assays 65 µg GST-Rab11a-Q70L protein (25 µg GST control) was coupled to GSH-Sepharose 4B beads (1:1 suspension) for 1 hr, 4°C on a rotating wheel. Beads were washed twice with pulldown buffer (25 mM Tris-HCl pH 7.4, 150 mM NaCl, 5 mM MgCl2, 10% (v/v) glycerol, 0.1% (v/v) Nonidet P-40) and subsequently incubated with the cell lysates for 2 hr at 4°C on a rotating wheel. Beads were washed four times with pulldown buffer and bound proteins were eluted with 1x Laemmli buffer and denatured at 95°C for 10 min, then were analyzed by immunoblotting.

mStrawberry-Rab11a = test: Colocalization with Rab11 in HeLa cells, Pearson's correlation coefficient; assay type: cell-based, Mus musculus
Experimental: (§1) HeLa cells were seeded on microscope cover glasses and transfected with Myc-epitope-tagged Spir-2 proteins and fluorescently-tagged MyoV and Rab11 proteins as described above. Cells were fixed with paraformaldehyde (3.7% in 1x PBS) for 20 min at 4°C and subsequently permeabilized using 0.2% Triton X-100 (in 1x PBS) for 3.5 min, room temperature. Cells were incubated with anti-c-Myc antibody (9E10, mouse monoclonal, 2 µg/ml, Santa Cruz Biotechnology; RRID: AB_627268) for 1 hr at room temperature and conjugated anti-mouse secondary antibodies (Cy5; from donkey, 3.25 µg/ml, Dianova (RRID: AB_2340820) and TRITC; from donkey, 3.125 µg/ml, Dianova (RRID: AB_2340767)) for 1 hr at room temperature avoiding exposure to light. Finally, cells were mounted on microscope slides with Mowiol and analyzed with a Leica AF6000LX fluorescence microscope, equipped with a Leica HCX PL APO 63x/1.3 GLYC objective and a Leica DFC350 FX digital camera (1392 × 1040 pixels, 6.45 × 6.45 µm pixel size). 3D stacks were recorded and processed with the Leica deconvolution software module. In case of the MyoVa autoregulation/activation experiments, we quantified the MyoVa expression levels. […] In order to clearly distinguish between vesicular and cytoplasmic MyoVa localization, we imaged either high or low expressing cells and determined the sum of pixel gray values per cell as a measure for the MyoVa expression levels. Based on that, we only used cells for the autoregulation analysis having a sum of pixel gray values less than 20 × 10^6 for the expression of GFP-MyoVa-D-FL. Images were recorded using the Leica LASX software and further processed with Adobe Photoshop and subsequently assembled with Adobe Illustrator.
The extent of colocalization of Rab11, Spir-2 and MyoVa was analyzed using the ImageJ (V2.0.0) plug-in Coloc 2. Here, the colocalization rate is indicated by the Pearson’s Correlation Coefficient (PCC) as a statistical measure to unravel a linear correlation between the intensity of different fluorescent signals. […] To take the noise of each image into account and to gain an objective evaluation of PCC significance, a Costes significance test was performed. Therefore, the pixels in one image were scrambled randomly and the correlation with the other (unscrambled) image was measured. […] Statistical data analysis was performed using SPSS 22 (IBM, Armonk, NY, USA).

GFP-MyoVb-GTD = test: Co-immunoprecipitation from HEK293 cells; assay type: binding, Homo sapiens; conditions: anti-Myc co-IP, HEK293, immunoblot
Experimental: HEK293 cells were transfected with expression vectors encoding Myc-tagged Spir proteins and GFP-tagged myosin Va and myosin Vb fragments. 48 hr post transfection, cells were lysed in lysis buffer (25 mM Tris-HCl pH 7.4, 150 mM NaCl, 5 mM MgCl2, 10% (v/v) glycerol, 0.1% (v/v) Nonidet P-40, 1 mM Phenylmethylsulfonylfluorid (PMSF; Sigma-Aldrich), protease inhibitor cocktail (complete mini, EDTA-free; Roche, Penzberg, Germany)) and centrifuged at 20,000 x g, 4°C, 20 min to remove insoluble debris. The clarified supernatant was incubated with 4 µg anti-c-Myc antibody (9E10, mouse monoclonal; Santa Cruz Biotechnology; RRID: AB_627268) for 1 hr on ice. Subsequently, 40 µl Protein G-Agarose beads (1:1 suspension; Roche) were added and incubated for 2 hr at 4°C on a rotating wheel. Beads were washed with pulldown buffer (25 mM Tris-HCl pH 7.4, 150 mM NaCl, 5 mM MgCl2, 10% (v/v) glycerol, 0.1% (v/v) Nonidet P-40). Bound proteins were eluted with 1x Laemmli buffer and denatured for 10 min at 95°C, then analyzed by immunoblotting.

HeLa cells = test: Subcellular localization by fluorescence microscopy; assay type: cell-based
Experimental: as §1

“GFP-MyoVa-Q1753R: eGFP-tagged full-length MyoVa with Q1753R mutation, which disrupts interaction with Rab11” was tested, and the “pulldown by GST-Rab11a-Q70L in words, with Q1753R mutant MyoVa” value (GST-Rab11a-Q70L) was “but not the GFP-MyoVa-Q1753R mutant”.

“Straw-FMN2-FH2-FSI: mStrawberry-tagged C-terminal formin-2, aa 1135 - 1578” was tested, and the “pulldown by GST-Rab11a-Q70L in words” value (GST-Rab11a-Q70L; HEK293 lysates over-expressing Myc-Spir-2, Straw-FMN2-FH2-FSI and GFP-MyoVa-FL) was “able to pull down” and the “pulldown by GST-Rab11a-Q70L in words, with Q1753R mutant MyoVa” value (GST-Rab11a-Q70L) was “Only faint”.

B1: Myc-Spir2-SB-FYVE: Myc-hs-Spir2-SB-FYVE aa 438 - 714, lacks the MyoV binding motif (protein)
chain: DRSFSEHDLAQLRSEVASGLQSATHPPGGTEPPRPRAGSAHVWRPGSRDQGTCPASVSDPSHPLLSNRGSSGDRPEASMTPDAKHLWLEFSHPVESLALTVEEVMDVRRVLVKAEMEKFLQNKELFSSLKKGKICCCCRAKFPLFSWPPSCLFCKRAVCTSCSIKMKMPSKKFGHIPVYTLGFESPQRVSAAKTAPIQRRDIFQSLQGPQWQSVEEAFPHIYSHGCVLKDVCSECTSFVADVVRSSRKSVDVLNTTPRRSRQTQSLYIPNTRTLDFK
modifications: left off: Myc epitope, end not stated, kept
Molecule B1 has a PCC (mStrawberry-Rab11a; GFP-MyoVa-CC-GTD + mStraw-Rab11 + Myc-Spir2-SB-FYVE (first block, r34), cell 1) of 0.63, a PCC (mStrawberry-Rab11a; GFP-MyoVa-CC-GTD + mStraw-Rab11 + Myc-Spir2-SB-FYVE (first block, r34), cell 2) of 0.74 and a PCC (mStrawberry-Rab11a; GFP-MyoVa-CC-GTD + mStraw-Rab11 + Myc-Spir2-SB-FYVE (first block, r34), cell 3) of 0.59. For the same molecule, the PCC (mStrawberry-Rab11a; GFP-MyoVa-CC-GTD + mStraw-Rab11 + Myc-Spir2-SB-FYVE (first block, r34), cell 4) was 0.23, the “Pearson's correlation coefficient (PCC), mean” value (mStrawberry-Rab11a; GFP-MyoVa-CC-GTD + mStraw-Rab11 + Myc-Spir2-SB-FYVE (first block, r34), mean of 4 cells) was 0.5475 and the “colocalization with Rab11 in words” value (mStrawberry-Rab11a; co-expression of Spir-2-SB-FYVE, MyoVa-CC-GTD and Rab11a, HeLa cells) was “significant reduction”.

B2: Spir-1: Myc-hs-Spir1 aa 2 - 757, full-length (protein)
chain: MANTVEADGSKDEGYEAADEGPEDEDGEKRSISAIRSYQDVMKICAAHLPTESEAPNHYQAVCRALFAETMELHTFLTKIKSAKENLKKIQEMEKGDESSTDLEDLKNADWARFWVQVMRDLRNGVKLKKVQQRQYNPLPIEYQLTPYEMLMDDIRCKRYTLRKVMVNGDVPPRLKKSAHEVILDFIRSRPPLNPVSARKLKPTPPRPRSLHERILEEIKAERKLRPVSPEEIRRSRLVRPLSMSHSFDLSDVTTPESPKNVGESSMVNGGLTSQTKENGLSAAQQGSAQRKRLLKAPTLAELDSSDSEEEKSLHKSTSSSSASPSLYEDPVLEAMCSRKKPPKFLPISSTPQPERRQPPQRRHSIEKETPTNVRQFLPPSRQSSRSLEEFCYPVECLALTVEEVMHIRQVLVKAELEKYQQYKDVYTALKKGKLCFCCRTRRFSFFTWSYTCQFCKRPVCSQCCKKMRLPSKPYSTLPIFSLGPSALQRGESCSRSEKPSTSHHRPLRSIARFSTKSRSVDKSDEELQFPKELMEDWSTMEVCVDCKKFISEIISSSRRSLVLANKRARLKRKTQSFYMSSAGPSEYCPSERTINEI
For B2, the “co-precipitation / interaction with MyoVb-GTD in words” value (shortened to “co-precipitation / interaction”) (GFP-MyoVb-GTD) was “did interact with the GFP-MyoVb-GTD”.

B3: Myc-Spir-2-KIND-WH2: Myc-hs-Spir2-KIND-WH2 aa 2 - 410 (protein)
chain: ARAGSCGGAAAGAGRPEPWELSLEEVLKAYEQPLNEEQAWAVCFQGCRGLRGSPGRRLRDTGDLLLRGDGSVGAREPEAAEPATMVVPLASSEAQTVQSLGFAIYRALDWGLDESEERELSPQLERLIDLMANNDSEDSGCGAADEGYGGPEEEEEAEGVPRSVRTFAQAMRLCAARLTDPRGAQAHYQAVCRALFVETLELRAFLARVREAKEMLQKLREDEPHLETPRAELDSLGHTDWARLWVQLMRELRRGVKLKKVQEQEFNPLPTEFQLTPFEMLMQDIRARNYKLRKVMVDGDIPPRVKKDAHELILDFIRSRPPLKQVSERRLRPLPPKQRSLHEKILEEIKQERRLRPVRGEGWAARGFGSLPCILNACSGDAKSTSCINLSVTDAGGSAQRPRPRVLLK
modifications: left off: Myc epitope, end not stated, kept
For B3, the “subcellular localization in words” value (HeLa cells; co-expression of eGFP-MyoVa-FL and N-terminal Spir-2 fragment) was “both cytosolic” and the “subcellular localization in words” value (HeLa cells; single expression) was “even cytoplasmic and nuclear localization”.

B4: 398 714: C-terminal Spir-2 deletion mutant (protein)
chain: GSAQRPRPRVLLKAPTLAEMEEMNTSEEEESPCGEVTLKRDRSFSEHDLAQLRSEVASGLQSATHPPGGTEPPRPRAGSAHVWRPGSRDQGTCPASVSDPSHPLLSNRGSSGDRPEASMTPDAKHLWLEFSHPVESLALTVEEVMDVRRVLVKAEMEKFLQNKELFSSLKKGKICCCCRAKFPLFSWPPSCLFCKRAVCTSCSIKMKMPSKKFGHIPVYTLGFESPQRVSAAKTAPIQRRDIFQSLQGPQWQSVEEAFPHIYSHGCVLKDVCSECTSFVADVVRSSRKSVDVLNTTPRRSRQTQSLYIPNTRTLDFK
modifications: left off: Myc epitope, end not stated, kept
notes: C-terminal Spir-2 deletion mutant
For B4, the “co-precipitation / interaction” value (GFP-MyoVb-GTD) was “show myosin V co-precipitation”.

B5: 1 423: N-terminal Spir-2 deletion mutant (protein)
chain: ARAGSCGGAAAGAGRPEPWELSLEEVLKAYEQPLNEEQAWAVCFQGCRGLRGSPGRRLRDTGDLLLRGDGSVGAREPEAAEPATMVVPLASSEAQTVQSLGFAIYRALDWGLDESEERELSPQLERLIDLMANNDSEDSGCGAADEGYGGPEEEEEAEGVPRSVRTFAQAMRLCAARLTDPRGAQAHYQAVCRALFVETLELRAFLARVREAKEMLQKLREDEPHLETPRAELDSLGHTDWARLWVQLMRELRRGVKLKKVQEQEFNPLPTEFQLTPFEMLMQDIRARNYKLRKVMVDGDIPPRVKKDAHELILDFIRSRPPLKQVSERRLRPLPPKQRSLHEKILEEIKQERRLRPVRGEGWAARGFGSLPCILNACSGDAKSTSCINLSVTDAGGSAQRPRPRVLLKAPTLAEMEEMNTS
modifications: left off: Myc epitope, end not stated, kept
notes: N-terminal Spir-2 deletion mutant
With B5 the “co-precipitation / interaction” value (GFP-MyoVb-GTD) was “show myosin V co-precipitation”.
